In patent publication US20220324970A1 (Janssen / Centocor, published 2022):
Read-outs that look alike come from different tables or passages of the source.

Assays:
[1] = molecular target: T1, human pIgR extracellular domain (ECD) (human, UniProt P01833 19-638); assay: BLI; summary table, repeats Table 1
T1 construct: also called hpIgR ECD

[2] = molecular target: T1, human pIgR extracellular domain (ECD); assay: BLI (Octet), VHH-mono-Fc and hpIgR ectodomain
[3] = molecular target: T2, human pIgR, full-length, on cells (human, UniProt P01833 19-764); assay: cell-based or functional assay
T2 sequence (P01833 19-764): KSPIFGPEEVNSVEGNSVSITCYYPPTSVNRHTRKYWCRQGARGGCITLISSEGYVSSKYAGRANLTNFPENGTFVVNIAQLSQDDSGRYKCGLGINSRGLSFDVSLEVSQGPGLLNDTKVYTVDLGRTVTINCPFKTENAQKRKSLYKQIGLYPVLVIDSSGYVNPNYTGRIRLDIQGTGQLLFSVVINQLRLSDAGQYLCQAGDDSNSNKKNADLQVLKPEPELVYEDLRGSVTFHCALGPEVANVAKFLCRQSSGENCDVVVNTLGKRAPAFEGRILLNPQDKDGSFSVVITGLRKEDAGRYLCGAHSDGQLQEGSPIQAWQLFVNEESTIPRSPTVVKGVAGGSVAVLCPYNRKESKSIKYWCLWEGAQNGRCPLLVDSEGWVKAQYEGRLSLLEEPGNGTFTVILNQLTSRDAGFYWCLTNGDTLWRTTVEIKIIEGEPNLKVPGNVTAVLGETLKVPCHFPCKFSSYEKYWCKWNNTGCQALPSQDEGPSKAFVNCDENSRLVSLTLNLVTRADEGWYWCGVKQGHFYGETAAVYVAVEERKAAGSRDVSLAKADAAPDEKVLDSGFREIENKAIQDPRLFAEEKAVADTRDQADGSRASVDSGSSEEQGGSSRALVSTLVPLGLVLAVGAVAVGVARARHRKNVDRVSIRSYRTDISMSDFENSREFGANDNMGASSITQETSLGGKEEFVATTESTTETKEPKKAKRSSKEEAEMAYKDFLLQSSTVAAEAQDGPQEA

[4] = molecular target: T2, human pIgR, full-length, on cells; assay: flow cytometry on MDCK-hpIgR cells; summary table, repeats Table 1
Protocol: (§1) Flow Cytometry was performed as follows. To test whether VHH-mono-Fc molecules recognize cell-surface hpIgR, Madin-Darby canine kidney (MDCK) cells engineered to express full-length hpIgR were used. Cells were cultured in Dulbecco's modified Eagle's medium containing 10% fetal calf serum at 37° C. with 5% CO₂. Cells were split into equal fractions (≈70,000 cells) and incubated with increasing concentrations of VHH-mono-Fc molecules for 30 min at 4 C. […] Cells were washed twice with cold staining buffer, resuspended in running buffer and analyzed with an iQue Screener (IntelliCyt Corporation). Binding was assessed by RL1 (A647) Geomeans from the live cell population and EC50 was calculated by fitting log VHH concentration versus MFI in Prism (Graphpad).

[5] = molecular target: T1, human pIgR extracellular domain (ECD); assay: BLI; summary table, repeats Table 1; remark: listed apart in the source
[6] = molecular target: T3, human pIgR extracellular domain 2 (D2) (human, UniProt P01833 128-242); assay: BLI (Octet RED384), 1:1 fit, 25 C, PBS; column kdis
T3 construct: HIS-tagged construct made in HEK293 cells; also called hpIgR domain 2

[7] = molecular target: T1, human pIgR extracellular domain (ECD); assay: as above
[8] = molecular target: T4, human pIgR extracellular domain 1-domain 2 (D1-D2) (human, UniProt P01833 19-240); assay: as above
T4 construct: HIS-tagged construct made in HEK293 cells
T4 sequence (P01833 other isoform, or with tags, fused parts or gaps limits assumed): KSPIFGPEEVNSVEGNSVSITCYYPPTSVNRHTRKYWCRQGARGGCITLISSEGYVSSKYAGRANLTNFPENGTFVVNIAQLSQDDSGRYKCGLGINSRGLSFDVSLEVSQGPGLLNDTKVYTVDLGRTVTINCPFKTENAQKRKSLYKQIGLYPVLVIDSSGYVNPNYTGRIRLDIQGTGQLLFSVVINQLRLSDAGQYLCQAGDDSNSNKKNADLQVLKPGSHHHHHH

hpIgR_D2-D3 [9] = molecular target: T5, hpIgR_D2-D3; assay: as above
T5 construct: HIS-tagged construct from HEK293 cells; also called human pIgR extracellular domain 2-domain 3 (D2-D3); hD2-D3
T5 HIS-tagged domain construct: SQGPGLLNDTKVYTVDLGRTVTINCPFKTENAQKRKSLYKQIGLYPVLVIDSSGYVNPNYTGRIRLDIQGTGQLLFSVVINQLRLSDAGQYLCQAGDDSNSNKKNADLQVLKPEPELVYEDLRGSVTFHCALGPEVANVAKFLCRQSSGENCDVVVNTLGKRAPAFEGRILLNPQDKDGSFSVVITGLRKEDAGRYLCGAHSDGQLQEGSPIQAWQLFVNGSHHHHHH

[10] = molecular target: T2, human pIgR, full-length, on cells; assay: cell-based or functional assay; remark: listed apart in the source
[11] = molecular target: T1, human pIgR extracellular domain (ECD); assay: ECL (MSD), anti-VHH detection against anti-Fc detection
Protocol: (§2) To check whether VHH recognizes a buried epitope on pIgR, EC₅₀ values were measured for VHH-mono-Fc molecules binding to hpIgR-ECD protein by electrochemiluminescence using two different detection antibodies, an anti-Fc antibody and an anti-VHH antibody. pIgR ECD (10 μg/ml in PBS) was coated on high-bind MSD plates for 2 hours at RT with 1000 rpm, incubated with blocking buffer for 1 hour at RT, incubated with VHH-mono-Fc molecules (increasing concentrations in PBS) for 2 hours at RT with 1000 rpm, washed 3× with PBT, incubated with ruthenylated secondary antibody (2 μg/ml in PBS) for 1 hour at RT with 1000 rpm, washed 3× with PBT and read plates in 40 ul reading buffer using the MSD imager. EC50 was calculated by fitting log VHH concentration versus log ECLU in Prism (Graphpad). The increase in EC₅₀ (>50-fold) due to anti-VHH detection was used as a measure to determine whether VHH recognized buried epitope on pIgR.

[12] = molecular target: T2, human pIgR, full-length, on cells; assay: cell-based or functional assay; remark: listed apart in the source
[13] = molecular target: T6, human pIgR extracellular domain 4-domain 5 (D4-D5) (human, UniProt P01833 350-565); assay: ECL (MSD) heat map, HIS-tagged construct captured via anti-HIS, anti-human-Fc detection
T6 construct: HIS-tagged construct made in HEK293 cells; also called hpIgR domains 4-5
T6 chain: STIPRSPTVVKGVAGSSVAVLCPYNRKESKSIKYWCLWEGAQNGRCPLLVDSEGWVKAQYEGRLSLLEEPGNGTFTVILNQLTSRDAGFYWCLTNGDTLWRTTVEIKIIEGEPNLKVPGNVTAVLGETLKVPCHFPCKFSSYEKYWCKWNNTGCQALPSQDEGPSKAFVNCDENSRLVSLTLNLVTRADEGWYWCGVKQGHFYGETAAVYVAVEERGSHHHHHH
Protocol: (§3) The Electrochemiluminescence assay was performed as follows. A meso-scale discovery (MSD) platform was used for conducting epitope mapping and epitope burial studies. To test the binding of VHH-mono-Fc molecules to purified pIgR protein constructs, Streptavidin MSD plates were coated with a biotinylated anti-HIS antibody (2 μg/ml in PBS) for 1 hour at RT with 1000 rpm, washed 3× with PBT (PBS+0.1% Tween-20), incubated with blocking buffer for 1 hour at RT, incubated with His-tagged pIgR proteins (10 μg/ml in PBS) for 2 hours at RT with 1000 rpm, washed 3× with PBT, incubated with VHH-mono-Fc molecules (100 μg/ml in PBS) for 2 hours at RT with 1000 rpm, washed 3× with PBT, incubated with ruthenylated-anti-human-Fc antibody (2 μg/ml in PBS) for 1 hour at RT with 1000 rpm, washed 3× with PBT and read plates in 40 ul reading buffer using the MSD imager. ECLU values were plotted as a heatmap.

hpIgR_D3 = molecular target: T7, hpIgR_D3; assay: as above
T7 construct: HIS-tagged construct from HEK293 cells; also called human pIgR extracellular domain 3 (D3); hD3
Protocol: (§4) A meso-scale discovery (MSD) platform was used for conducting epitope mapping and epitope burial studies. To test the binding of VHH-mono-Fc molecules to purified pIgR protein constructs, Streptavidin MSD plates were coated with a biotinylated anti-HIS antibody (2 μg/ml in PBS) for 1 hour at RT with 1000 rpm, washed 3× with PBT (PBS+0.1% Tween-20), incubated with blocking buffer for 1 hour at RT, incubated with His-tagged pIgR proteins (10 μg/ml in PBS) for 2 hours at RT with 1000 rpm, washed 3× with PBT, incubated with VHH-mono-Fc molecules (100 μg/ml in PBS) for 2 hours at RT with 1000 rpm, washed 3× with PBT, incubated with ruthenylated-anti-human-Fc antibody (2 μg/ml in PBS) for 1 hour at RT with 1000 rpm, washed 3× with PBT and read plates in 40 ul reading buffer using the MSD imager. ECLU values were plotted as a heatmap.
(§5) Binding of VHH-mFc molecules were tested to immobilized pIgR constructs by the electrochemiluminescence method.
T7 HIS-tagged domain construct: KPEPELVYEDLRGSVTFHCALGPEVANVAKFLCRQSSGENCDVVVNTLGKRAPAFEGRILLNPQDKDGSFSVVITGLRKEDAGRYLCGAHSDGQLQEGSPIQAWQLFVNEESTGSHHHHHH

[14] = molecular target: T8, human pIgR extracellular domain 1 (D1) (human, UniProt P01833 19-127); assay: as above
T8 construct: HIS-tagged construct made in HEK293 cells; also called hpIgR domain-1
T8 sequence (P01833 other isoform, or with tags, fused parts or gaps limits assumed): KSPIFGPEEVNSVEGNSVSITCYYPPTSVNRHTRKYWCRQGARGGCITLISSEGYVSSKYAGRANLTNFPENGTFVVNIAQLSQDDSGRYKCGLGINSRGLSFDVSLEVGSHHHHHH
Protocol: as §4, §5

[15] = molecular target: T9, human pIgR extracellular domain 5 (D5) (human, UniProt P01833 460-565); assay: as above
T9 construct: HIS-tagged construct made in HEK293 cells; also called hpIgR domain 5
Protocol: as §4, §5

[16] = molecular target: T2, human pIgR, full-length, on cells; assay: flow cytometry on MDCK-hpIgR cells; summary table, repeats Table 1; remark: listed apart in the source
Protocol: as §1

[17] = molecular target: T2, human pIgR, full-length, on cells; assay: flow cytometry on MDCK-hpIgR cells
Protocol: as §1

[18] = molecular target: T1, human pIgR extracellular domain (ECD); assay: ECL (MSD), hpIgR-ECD coated, anti-VHH detection
Protocol: as §2

[19] = molecular target: T1, human pIgR extracellular domain (ECD); assay: ECL (MSD), hpIgR-ECD coated, anti-Fc detection
Protocol: as §2

[20] = molecular target: T3, human pIgR extracellular domain 2 (D2); assay: BLI (Octet RED384), 1:1 fit, 25 C, PBS
Protocol: (§6) Bio-layer Interferometry was performed as follows. […] Data were collected with Octet Data Acquisition version 7.1.0.87 (ForteBio) and analyzed using Octet Data Analysis version 7.1 (ForteBio). To measure binding kinetics between VHH-mono-Fc molecules and HIS-tagged pIgR proteins, VHH-mono-Fc was immobilized on amine-reactive generation-2 (ARG2) biosensors according to manufacturer's instructions and increasing concentrations of pIgR proteins were exposed to sensor-immobilized VHH. In some cases, HIS-tagged pIgR proteins were immobilized on anti-HIS biosensors and exposed to increasing concentrations of VHH-mono-Fc molecules. Association and dissociation rates were measured by the shift in wavelength (nm). […] All reactions were performed at 25° C. in PBS.

[21] = molecular target: T1, human pIgR extracellular domain (ECD); assay: BLI (Octet RED384), 1:1 fit, 25 C, PBS
Protocol: as §6

[22] = molecular target: T4, human pIgR extracellular domain …; assay: BLI (Octet RED384), 1:1 fit, 25 C, PBS
Protocol: as §6

hpIgR_D2-D3 [23] = molecular target: T5, hpIgR_D2-D3; assay: BLI (Octet RED384), 1:1 fit, 25 C, PBS
Protocol: as §6

[24] = molecular target: T4, human pIgR extracellular domain …; assay: ECL (MSD) heat map, HIS-tagged construct captured via anti-HIS, anti-human-Fc detection
Protocol: as §3

hpIgR_D2-D3 [25] = molecular target: T5, hpIgR_D2-D3; assay: as above
Protocol: as §3

[26] = molecular target: T3, human pIgR extracellular domain 2 (D2); assay: as above
Protocol: as §4, §5

[27] = molecular target: T1, human pIgR extracellular domain (ECD); assay: BLI (Octet RED384), 1:1 fit, 25 C, PBS; column kdis; remark: listed apart in the source
[28] = molecular target: T6, human pIgR extracellular domain …; assay: as above
[29] = molecular target: T1, human pIgR extracellular domain (ECD); assay: BLI (Octet RED384), 1:1 fit, 25 C, PBS; remark: listed apart in the source
[30] = molecular target: T6, human pIgR extracellular domain …; assay: BLI (Octet RED384), 1:1 fit, 25 C, PBS

T1 sequence (P01833 other isoform, or with tags, fused parts or gaps): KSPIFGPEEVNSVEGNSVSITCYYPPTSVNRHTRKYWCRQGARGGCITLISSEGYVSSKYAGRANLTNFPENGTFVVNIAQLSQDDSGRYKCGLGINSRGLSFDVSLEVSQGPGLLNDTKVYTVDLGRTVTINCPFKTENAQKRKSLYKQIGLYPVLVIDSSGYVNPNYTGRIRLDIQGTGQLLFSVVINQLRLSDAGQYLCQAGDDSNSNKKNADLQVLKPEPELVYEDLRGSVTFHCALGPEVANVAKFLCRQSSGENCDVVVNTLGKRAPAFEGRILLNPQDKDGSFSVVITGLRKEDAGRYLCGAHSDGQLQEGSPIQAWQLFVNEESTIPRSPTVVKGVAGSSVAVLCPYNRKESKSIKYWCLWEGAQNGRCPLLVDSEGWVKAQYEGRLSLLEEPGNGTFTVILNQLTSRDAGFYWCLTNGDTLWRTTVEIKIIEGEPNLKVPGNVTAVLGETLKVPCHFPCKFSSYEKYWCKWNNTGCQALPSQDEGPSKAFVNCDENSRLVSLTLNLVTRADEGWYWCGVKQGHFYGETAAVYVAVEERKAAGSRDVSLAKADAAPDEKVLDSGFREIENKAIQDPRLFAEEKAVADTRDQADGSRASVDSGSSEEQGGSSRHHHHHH

Binder | Kd [1] [nM] | Kd [2] [nM] | For. Trans. (Fold Incr.) [3] [fold] | Rev. Trans (Fold Incr.) [3] [fold] | EC50 [4] [nM] | Kd [5] [nM] | Transcytosis (Fold Incr.) [10] [fold] | Fold change in EC50 [11] [fold] | increase in their apical concentration relative to control VHH (MDCK-hpIgR monolayers) [12] [fold] | binding result (hpIgR_D3) | binding result [14] | binding result [15] | EC50 [16] [nM] | EC50 [17] [nM] | EC50 [18] [nM] | EC50 [19] [nM] | other results
VHH4-linker-mono-Fc protein (Fc fusion, also called VHH4-mono-Fc; hpIgR_073) EVQVVESGGGLVQAGGSLRLSCAVSGTSVSSNAMGWYRQAPGKQREWVGFIDRIATTTIATSVKGRFAITRDNAKNTVYLQMSGLKPEDTAVYYCNHPLTARWGQGTQVTVSSEPKTPKPQPQPQLQPQPNPTTESKSPKSPAPELLGGPSVFLFPPKPKDTLMISRTPEVTCVVVDVSHEDPEVKFNWYVDGVEVHNAKTKPREEQYNSTYRVVSVLTVLHQDWLNGKEYKCKVSNKALPAPIEKTISKAKGQPREPQVYTKPPSREEMTKNQVSLSCLVKGFYPSDIAVEWESNGQPENNYKTTVPVLDSDGSFRLASYLTVDKSRWQQGNVFSCSVMHEALHNHYTQKSLSLSPGK | 22 | 22 | 15.1 | 8 | 32.9 | 22 | 12.6 | 180 | > 10 | no binding (tested: 100 ug/ml (single concentration)) | no binding (tested: 100 ug/ml (single concentration)) | no binding (tested: 100 ug/ml (single concentration)) | 32.9 | 32.9 | 206 | 1.1 | koff [6]: 0.0016 s⁻¹; koff [7]: 0.0011 s⁻¹; koff [8]: 0.00149 s⁻¹; koff (hpIgR_D2-D3 [9]): 0.0012 s⁻¹; binding result [13]: no binding (tested: 100 ug/ml (single concentration)); Kd [20]: 83.8 nM; kon [20]: 19100 M⁻¹ s⁻¹; Kd [21]: 76 nM; kon [21]: 14400 M⁻¹ s⁻¹; Kd [22]: 77.3 nM; kon [22]: 19200 M⁻¹ s⁻¹; Kd (hpIgR_D2-D3 [23]): 86.1 nM; kon (hpIgR_D2-D3 [23]): 14000 M⁻¹ s⁻¹
VHH9-linker-mono-Fc protein (Fc fusion, made in CHO cells; also called VHH9-mono-Fc; hpIgR_221) QVQLVESGGGLVQAGGSLRLSCAVSGRTFSTYRMGWFRQAPGKERSFVAAISWSGGSTTYADPVKGRFTISRDNAKNTVYLRMNSLKPEDTAVYYCNDQRGYWGQGTLVTVSSEPKTPKPQPQPQLQPQPNPTTESKSPKSPAPELLGGPSVFLFPPKPKDTLMISRTPEVTCVVVDVSHEDPEVKFNWYVDGVEVHNAKTKPREEQYNSTYRVVSVLTVLHQDWLNGKEYKCKVSNKALPAPIEKTISKAKGQPREPQVYTKPPSREEMTKNQVSLSCLVKGFYPSDIAVEWESNGQPENNYKTTVPVLDSDGSFRLASYLTVDKSRWQQGNVFSCSVMHEALHNHYTQKSLSLSPGK | 4 | 4 | 24.2 | 6.6 | 1.5 | 4 | 22.4 | 1.8 | > 10 | no binding (tested: 100 ug/ml (single concentration)) | no binding (tested: 100 ug/ml (single concentration)) | no binding (tested: 100 ug/ml (single concentration)) | 1.5 | 1.5 | 0.8 | 0.4 | binding result [24]: no binding (tested: 100 ug/ml (single concentration)); binding result (hpIgR_D2-D3 [25]): no binding (tested: 100 ug/ml (single concentration)); binding result [26]: no binding (tested: 100 ug/ml (single concentration)); koff [27]: 0.00156 s⁻¹; koff [28]: 0.00169 s⁻¹; Kd [29]: 19.6 nM; kon [29]: 79300 M⁻¹ s⁻¹; Kd [30]: 12.6 nM; kon [30]: 133000 M⁻¹ s⁻¹
